According to patent US12241094B2, “Phenazine degrading agents and related compositions, methods and systems for interfering with viability of bacteria” (priority 2016, dated 2025):

Experiments:
Pa PA14 biofilm = assay: Biofilm biomass by DAPI intensity (Example 7); format: cell-based, P. aeruginosa
Experimental: In this example, to check for an effect of PodA or 1-OH-PHZ on biofilm development, Pa PA14 was grown in 8-well chambered microscope slides designed for biofilm imaging, as previously reported (Das et al. (2015) Sci Rep. 5:8398). Overnight cultures of Pa PA14 were diluted to a starting optical density of 0.25 and grown directly on the slides (volume of 250 μl per chamber). After 5 h incubation at 37° C., planktonic cells were rinsed from the slide and remaining cells were stained with DAPI. Biofilm biomass was quantified by DAPI intensity on a Leica confocal microscope, with LAS X software. Pa PA14 incubated in the presence of 1 μM PodA or 100 μM 1-OHPHZox had ˜50% the biofilm biomass of Pa PA14 alone (FIG. 20A).

[1] = PYO demethylation in the presence of DNA; format: biochemical; conditions: gDNA pellet, 2 μg mL^−1, 3 hours
Experimental: Biofilm experiments. For all experiments involving inactivated PodA, either the E154A mutant or PodA30-162 that was subjected to a 1 hour treatment at 98° C. was used. To test the ability of PodA30-162 to degrade PYO in the presence of DNA, genomic DNA (gDNA) from P. aeruginosa PA14 was used in modified versions of previously described assays (59). For experiments using DNA pellets, 0.5 mg of gDNA was pelleted in the presence of 300 mM sodium acetate, pH 5.2 and 70% ethanol. Pellets were washed with 70% ethanol and dried. 200 μL of 800 μM PYO was added to the gDNA pellet without mixing and left to sit at room temperature for 6 hours to allow for diffusion of PYO into the gDNA pellet. The pellet was washed once with 70% EtOH, and submerged in a solution containing 10 mM Tris, pH 7.0 and 40% isopropanol. The pellet remained blue, consistent with an association of PYO with DNA. PodA30-162 was added to the isopropanol solution to a final concentration of 2 μg mL^−1 and left to sit for 3 hours to allow for the reaction to proceed. Tubes were imaged before and after PodA30-162 treatment. […] The PYO gDNA mixture was amended with 1 μg mL^−1 PodA30-162 and loss of PYO was monitored on a BioTek Synergy 4 microplate reader (BioTek) plate reader at 690 nm. Standards were included to quantify PYO loss over time. […]

B1: PodA30-162: truncated pyocyanin demethylase encoded by MFORT_14352 of Mycobacterium fortuitum lacking N-terminal helix, SEQ ID NO: 2 (protein, listed as Mycobacterium fortuitum)
chain: MDGRGGRSTTEPVTMTLDVKNDQVAKHDFGKPGMDVGDMDIFSDILSVDGKQVGYDGGACFFTNVTPDNPMTYCELTIHLDAGEIFARSLTPHTLAPFTMAITGGTGEYANSKGELTVSGVATPDEKYELKLTKAENLYFQ
- biofilm biomass relative to Pa PA14 alone (Pa PA14 biofilm; 1 μM PodA or 100 μM 1-OHPHZox, 5 h at 37° C): ~50%
- biofilm formation compared to untreated control (Pa PA14 biofilm; PodA 1 μM, 1-OH-PHZ 100 μM, total DAPI staining): inhibit biofilm formation
- demethylation of PYO associated with precipitated DNA [1]: not protected
